Residue numbers refer to the chain shown, from its start.
Molecular target: T1, human plasma kallikrein (human, UniProt P03952 20-390; P03952 391-638)
T1 construct: two disulfide-linked chains; NP_000883.2; also called pKal; hpKal
Assay: ELISA, biotinylated pKal signal over streptavidin background

T1 sequence (P03952 20-390 limits assumed, chain 1 of 2): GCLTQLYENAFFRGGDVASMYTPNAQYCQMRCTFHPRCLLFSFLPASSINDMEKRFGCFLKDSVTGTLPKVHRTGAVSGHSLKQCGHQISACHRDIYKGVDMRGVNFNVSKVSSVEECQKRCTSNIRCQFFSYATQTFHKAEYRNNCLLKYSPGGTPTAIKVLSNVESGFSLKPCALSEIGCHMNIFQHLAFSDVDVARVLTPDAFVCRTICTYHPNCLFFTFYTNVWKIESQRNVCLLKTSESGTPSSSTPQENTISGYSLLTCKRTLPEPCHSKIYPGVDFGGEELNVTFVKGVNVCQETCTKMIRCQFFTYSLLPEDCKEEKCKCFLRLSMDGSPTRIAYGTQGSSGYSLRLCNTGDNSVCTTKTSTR
T1 sequence (P03952 391-638 limits assumed, chain 2 of 2): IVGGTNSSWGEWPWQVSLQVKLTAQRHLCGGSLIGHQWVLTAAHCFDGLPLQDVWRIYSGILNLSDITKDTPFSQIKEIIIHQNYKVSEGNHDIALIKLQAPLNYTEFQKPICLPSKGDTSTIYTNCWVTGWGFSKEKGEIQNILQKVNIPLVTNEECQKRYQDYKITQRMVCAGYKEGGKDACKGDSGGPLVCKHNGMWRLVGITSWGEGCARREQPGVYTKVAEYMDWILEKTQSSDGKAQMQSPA

B1: M12-E06 (Fab, V domains shown)
VH: EVQLLESGGGLVQPGGSLRLSCAASGFTFSQYKMLWVRQAPGKGLEWVSGIGPSGGLTAYADSVKGRFTISRDNSKNTLYLQMNSLRAEDTAVYYCARAPWFGELGMDVWGQGTTVTVSS
VL: DIQMTQSPSSLSASVGDRVSITCRASQSISTYLNWYQHKPGKAPTLLIYGAFSLQSGVPSRFSGSGSGTDFALTISSLQPEDFATYYCQQSHSTPPTFGQGTRVEIK
- ELISA (T/B): 48

B2: M27-B01 (Fab, V domains shown)
VH: EVQLLESGGGLVQPGGSLRLSCAASGFTFSDYTMWWVRQAPGKGLEWVSSISSSGGITFYADSVKGRFTISRDNSKNTLYLQMNSLRAEDTAVYYCARSADTAMGGAFDIWGQGTMVTVSS
VL: not shown
- ELISA (T/B): 33.1

B3: M12-A08 (Fab, V domains shown)
VH: EVQLLESGGGLVQPGGSLRLSCAASGFTFSWYYMGWVRQAPGKGLEWVSWIVSSGGLTLYADSVKGRFTISRDNSKNTLYLQMNSLRAEDTAMYYCARTTVTTGDAFDIWGQGTMVTVSS
VL: DIQMTQSPSSLSASVGDRVTITCRASQSISRYLNWYQQKPGKAPKLLIYAASTLETGVPSRFSGSGSGTDFTLTITTLQPEDFVIYYCQQSYSTPYTFGQGTKLEIK
- ELISA (T/B): 40.4

B4: M27-G01 (Fab, V domains shown)
VH: EVQLLESGGGLVQPGGSLRLSCAASGFTFSLYRMFWVRQAPGKGLEWVSSIWSSGGPTMYADSVKGRFTISRDNSKNTLYLQMNSLRAEDTAVYYCAREYPSTYYFDYWGQGTLVTVSS
VL: B3 VL with R31T, A50G, T53S, E55Q, T56S, T76S, T77S, V84T, T94D, E105D
- ELISA (T/B): 31.4

B5: M12-D10 (Fab, V domains shown)
VH: EVQLLESGGGLVQPGGSLRLSCAASGFTFSNYPMDWVRQAPGKGLEWVSSISSSGGWTNYADSVKGRFTISRDNSKNTLYLQMNSLRAEDTAVYYCATDTSGSYLGFDYWGQGTLVTVSS
VL: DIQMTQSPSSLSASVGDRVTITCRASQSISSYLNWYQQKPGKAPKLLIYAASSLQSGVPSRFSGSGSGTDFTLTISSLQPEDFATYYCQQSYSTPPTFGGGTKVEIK
- ELISA (T/B): 9.9

B6: M27-G09 (Fab, V domains shown)
VH: EVQLLESGGGLVQPGGSLRLSCAASGFTFSEYDMAWVRQAPGKGLEWVSYIVSSGGFTSYADSVKGRFTISRDNSKNTLYLQMNSLRAEDTAVYYCTTWAGWIAAADYWGQGTLVTVSS
VL: DIQMTQSPSSVSASVGDRITITCRTRQSISNYLNWYQQKPGEPPKLLIFAASSLQSGVPSRFSGSGTGTEFTLTISSLQPEDLAIYYCQQSYDIPFTFGQGTKLEIK
- ELISA (T/B): 2.2

B7: M27-B12 (Fab, V domains shown)
VH: EVQLLESGGGLVQPGGSLRLSCAASGFTFSWYQMMWVRQAPGKGLEWVSSISPSGGITEYADSVKGRFTISRDNSKNTLYLQMNSLRAEDTAVYYCARDRSSGWYYYGMDVWGQGTTVTVSS
VL: QYELTQPPAVSVSPGQTATITCSGDKLGDEYAAWYQQKPGQSPVLVIYQDRKRPSGIPERFSGSNFGNTATLTITGTQVMDEADYYCQAWGKRNVVFGGGTKLTVL
- ELISA (T/B): 2.3

B8: M11-G12 (Fab, V domains shown)
VH: EVQLLESGGGLVQPGGSLRLSCAASGFTFSQYPMNWVRQAPGKGLEWVSSISSSGGFTTYADSVKGRFTISRDNSKNTLYLQMNSLRAEDTAVYYCAREEQQGGFDYWGQGTLVTVSS
VL: DIQMTQSPSSLSAFVGDRVSITCRASQTISVYVNWYQHKSGQAPKLLIYGASSLQSGVPSRFSGSGSGTDFTLTISSLQPEDFATYFCQQSYSIPFTFGGGTDVQIR
- ELISA (T/B): 4.9

B9: M27-E03 (Fab, V domains shown)
VH: EVQLLESGGGLVQPGGSLRLSCAASGFTFSSYMMHWVRQAPGKGLEWVSGIYPSGGWTDYADSVKGRFTISRDNSKNTLYLQMNSLRAEDTATYYCARLVAGLDAFDIWGQGTMVTVSS
VL: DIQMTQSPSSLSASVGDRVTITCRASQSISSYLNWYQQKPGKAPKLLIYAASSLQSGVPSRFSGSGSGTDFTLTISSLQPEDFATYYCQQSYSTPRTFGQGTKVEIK
- ELISA (T/B): 35.9

B10: M12-C09 (Fab, V domains shown)
VH: EVQLLESGGGLVQPGGSLRLSCAASGFTFSSYAMVWVRQAPGKGLEWVSSIGSSGGFTLYADSVKGRFTISRDNSKNTLYLQMNSLRAEDTAVYYCASMNLGGGDAFDIWGQGTMVTVSS
VL: DIQMTQSPSSLSASVGDRVTITCRASQSIGIYLNWYHQKPGKAPNLLIYGASSLQSGVPSRFSGSGSGTDFTLTISSLQPGDFATYYCQHSYSTPFTFGGGTKVEIK
- ELISA (T/B): 7

B11: M27-H10 (Fab, V domains shown)
VH: EVQLLESGGGLVQPGGSLRLSCAASGFTFSAYQMAWVRQAPGKGLEWVSVIYSSGGYTDYADSVKGRFTISRDNSKNTLYLQMNSLRAEDTAVYYCARHNWNDGAFDIWGQGTMVTVSS
VL: DIQMTQSPSSLSASVGDRVTITCRASQSISNYLNWYQQKPGKAPKFLIYAASSLQSGVPSRFSGSGSGTDFTLSISSLQPEDFATYYCQQSYSTPQTFGQGTKVEMK
- ELISA (T/B): 12.4

B12: M27-G04 (Fab, V domains shown)
VH: EVQLLESGGGLVQPGGSLRLSCAASGFTFSAYYMVWVRQAPGKGLEWVSYISPSGGQTQYADSVKGRFTISRDNSKNTLYLQMNSLRAEDTAVYYCAREAISSSSFDYWGQGTLVTVSS
VL: DIQMTQSPSSLSASVGDRVTITCRASQRISYYLTWYQQKPGKVPKLLIYAASSLESGVPSRFSGSGSGTDFTLTISNLQPEDFATYYCQQAFSTPFTFGGGTKVEIK
- ELISA (T/B): 4.1

B13: M27-F04 (Fab, V domains shown)
VH: EVQLLESGGGLVQPGGSLRLSCAASGFTFSWYPMTWVRQAPGKGLEWVSSIGPSGGQTIYADSVKGRFTISRDNSKNTLYLQMNSLRAEDTAVYYCTTEYGDYGGGFDPWGQGTLVTVSS
VL: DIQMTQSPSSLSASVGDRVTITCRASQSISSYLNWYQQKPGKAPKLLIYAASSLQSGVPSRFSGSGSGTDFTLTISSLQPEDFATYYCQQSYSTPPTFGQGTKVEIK
- ELISA (T/B): 10.5

B14: M27-F11 (Fab, V domains shown)
VH: EVQLLESGGGLVQPGGSLRLSCAASGFTFSSYHMMWVRQAPGKGLEWVSSIYPSGGATMYADSVKGRFTISRDNSKNTLYLQMNSLRAEDTAMYYCARDGYHYGDYTYFQHWGQGTLVTVSS
VL: DIQMTQSPSFLSASVGDRVTITCRASQGISSYLAWYQQKPGKAPKLLIYAASSLQSGVPSRFSGSGSGTDFTLTISSLQPEDFATYYCQQSYNTLRTFGPGTKVDLK
- ELISA (T/B): 10

B15: M12-C10 (Fab, V domains shown)
VH: EVQLLESGGGLVQPGGSLRLSCAASGFTFSDYEMHWVRQAPGKGLEWVSGISPSGGKTQYADSVKGRFTISRDNSKNTLYLQMNSLRAEDTAVYYCARDLKWGGRGSPDWYFDLWGRGTLVTVSS
VL: QSALTQPPSVSVSPGQTASITCSGDKLGEKYVSWYQQKPGQSPVVVIYQDNKRPSGIPERFSGSNSGNTATLTISGTQAVDEADYYCQAWDSYTVVFGGGSKLTVLG
- ELISA (T/B): 8.3

B16: M12-B04 (Fab, V domains shown)
VH: EVQLLESGGGLVQPGGSLRLSCAASGFTFSLYSMYWVRQAPGKGLEWVSRIRPSGGGTVYADSVKGRFTISRDNSKNTLYLQMNSLRAEDTAVYYCARDPLYSSGDVWGQGTTVTVSS
VL: DIQMTQSPSSLSASVGDRVTITCRASQGIRNDLGWYQHKPGKAPKLLIYAASILQSGVPSRFSGTASGTDFTLTISSLQPEDFATYFCLQDYEYPLTFGGGTKLDIK
- ELISA (T/B): 18

B17: M27-A10 (Fab, V domains shown)
VH: EVQLLESGGGLVQPGGSLRLSCAASGFTFSWYRMDWVRQAPGKGLEWVSSIWPSGGLTSYADSVKGRFTISRDNSKNTLYLQMNSLRAEDTAVYYCARGWAPGGDAFDIWGQGTMVTVSS
VL: DIQMTQSPSSLSASVGDRVTITCRASQSISAYLNWYQQKPGKAPQLLMYGVGSLQSGVPSRFSGSGSGTDFTLTISSLQPEDFATYFCQQGYTTPVTFGGGTKVEIK
- ELISA (T/B): 3.2

— US20260176378A1 (DYAX, published 2026)
